Test results taken from patent publication US20140096274A1 (published 2014).

T1: human RANK-Fc (human, UniProt Q9Y6Q6 30-212)
T1 construct: also called hRANK-Fc; hRANK-FC; not shown: Fc part of the bought fusion; not described
T1 sequence (looked up): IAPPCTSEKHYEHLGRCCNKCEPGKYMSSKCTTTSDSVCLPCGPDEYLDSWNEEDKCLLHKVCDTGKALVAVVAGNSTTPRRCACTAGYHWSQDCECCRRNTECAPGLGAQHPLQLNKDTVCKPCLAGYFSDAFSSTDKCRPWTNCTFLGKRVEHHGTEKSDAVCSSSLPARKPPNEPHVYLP

T2: murine RANKL heterodimeric variant mD1 (mouse Dimer 1) (mouse, UniProt O35235 160-316; O35235 160-316)
T2 construct: range 160-316; Heterodimer of monomer A (His-tagged) and monomer B, co-expressed in E. coli; also called RANKL dimer 1; RANK-L Dimer 1; not shown: hexahistidine-tag fused to monomer A
T2 sequence (looked up) 1: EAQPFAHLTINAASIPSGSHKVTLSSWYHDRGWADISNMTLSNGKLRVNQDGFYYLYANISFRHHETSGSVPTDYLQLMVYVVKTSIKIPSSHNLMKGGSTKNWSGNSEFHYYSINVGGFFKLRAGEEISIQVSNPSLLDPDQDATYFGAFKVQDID
T2 sequence (looked up) 2: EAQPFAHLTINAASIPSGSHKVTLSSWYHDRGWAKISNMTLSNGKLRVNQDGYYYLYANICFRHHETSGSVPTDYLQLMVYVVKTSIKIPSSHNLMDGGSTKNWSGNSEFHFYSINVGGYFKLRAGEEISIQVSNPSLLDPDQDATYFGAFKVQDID

T3: murine RANKL heterodimeric variant mD2 (mouse Dimer 2) (mouse, UniProt O35235 160-316; O35235 160-316)
T3 construct: range 160-316; Heterodimer of monomer A (His-tagged) and monomer B, co-expressed in E. coli; also called RANKL dimer 2; dRANKL D2; not shown: hexahistidine-tag fused to monomer A
T3 sequence (looked up) 1: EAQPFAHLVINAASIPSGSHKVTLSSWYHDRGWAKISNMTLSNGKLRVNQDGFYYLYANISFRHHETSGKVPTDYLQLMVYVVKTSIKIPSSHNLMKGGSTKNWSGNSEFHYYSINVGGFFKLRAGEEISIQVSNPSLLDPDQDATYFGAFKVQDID
T3 sequence (looked up) 2: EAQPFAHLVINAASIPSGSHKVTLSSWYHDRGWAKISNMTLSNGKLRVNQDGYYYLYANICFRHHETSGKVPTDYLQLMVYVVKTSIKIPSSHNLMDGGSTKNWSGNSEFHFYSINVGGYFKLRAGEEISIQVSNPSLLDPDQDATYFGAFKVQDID

B1: murine RANK-Fc (Fc fusion, mouse, UniProt O35305 31-214, looked up)
chain: VTPPCTQERHYEHLGRCCSRCEPGKYLSSKCTPTSDSVCLPCGPDEYLDTWNEEDKCLLHKVCDAGKALVAVDPGNHTAPRRCACTAGYHWNSDCECCRRNTECAPGFGAQHPLQLNKDTVCTPCLLGFFSDVFSSTDKCKPWTNCTLLGKLEAHQGTTESDVVCSSSMTLRRPPKEAQAYLPS
notes: also called mRANK-Fc; mRANK-FC; not shown: Fc part of the bought fusion; not described

What was measured:
human RANK-Fc = molecular target: T1, human RANK-Fc; experiment: SPR (Biacore T100) single cycle kinetics, hRANK-Fc captured on protein A at 200 RU, 1:1 fit
Description: (§1) FIG. 35. Binding of dimeric human RANKL variants and human RANKL WT towards murine RANK at 37° C. (left) or human RANK (right) receptor. Receptors were captured at a level of 200 RU using a Protein A (Sigma) modified surface of a CM5 chip (Biacore GE Lifesciences). Receptor binding curves of purified human hD1.3 and hD2.3 variants and human RANKL WT (E. coli produced, R&D systems) were recorded in real time using the single cycle kinetics method (Biacore) using a Biacore T100 (Biacore, GE Lifescience). Ligands were injected in 5 consecutive injection from 1 nM to 100 nM. After subtracting the signal from the reference channel and buffer injections the resulting binding curves were fitted to a 1:1 interaction model using the BiaEvaluation software (Biacore GE Lifescience). Flow rate was 50 ul/min and protein A surface was regenerated using 10 mM Glycine pH 2 solution, murine RANK-Fc and human RANK-Fc were obtained from R&D systems. Running buffer was HBS-EP+ (Biacore GE Lifescience).

murine RANK-Fc = molecular target: B1; experiment: SPR (Biacore T100) single cycle kinetics, mRANK-Fc captured on protein A at 200 RU, 1:1 fit
Description: as §1

[1] = molecular target: T2, murine RANKL heterodimeric variant mD1 …; experiment: SPR single cycle kinetics, mRANK-Fc captured at 20-40 RU, 1:1 fit
Description: (§2) Considering the high similarity between human RANKL and murine RANKL (>88%) the murine dimers were also tested for hRANK binding. Binding to hRANK-Fc and mRANK-Fc (both from R&D Systems) was recorded for five consecutive concentrations of murine flag RANKL WT, D1 (mD1) or D2 (mD2) (˜0.3-15 nM) using SPR with a single cycle kinetics based approach. The capture level of mRANK-Fc and hRANK-Fc was low (20-40 RU) in order to ensure 1:1 binding. Both WT and the D1 and D2 dimeric variants bound with high affinity towards the mRANK receptor and to the human RANK receptor (FIG. 16: Table 8).

[2] = molecular target: T3, murine RANKL heterodimeric variant mD2 …; experiment: as above
Description: as §2

[3] = molecular target: T2, murine RANKL heterodimeric variant mD1 …; experiment: SPR, mRANK-Fc captured at low density on C1 chip, 1:1 Langmuir fit, mean of three experiments
Description: (§3) SPR measurements were performed using ˜1500-2000 RU of captured mRANK-Fc on the surface of a CM5 sensor chip (FIGS. 15B and C). This is a density that results in a mean ratio of RANKL:RANK of approx 1:3 (52). […] (Table 5, below) In contrast, the ratio of binding of RANKL variants mD1 and mD2 to mRANK-Fc seems hardly to be affected by receptor density (Table 5). The values obtained after injecting 500 nM of the dimeric variants correlate to binding of 1.5 monomeric subunits by mD1 and 1.6 monomeric subunits by mD2.
(§4) Kinetic binding parameters were also measured for mD1 and mD2 binding to mRANK-FC in real time using SPR using murine RANKL-WT as a control (FIG. 15; table 8). RANKL dimer binding curves to mRANK-Fc captured at low density on the surface of a C1 sensorchip were recorded using concentrations ranging from 100 pM to 562 nM. At very low receptor density, RANKL proteins bind only one receptor molecule, allowing the data to be fitted to a Langmuir 1:1 interaction model (29). RANKL WT needed a very low density (<20 resonance units (RU)) to come close to a 1:1 ratio (FIG. 3A). […] Maximum binding of 5.5 RU is reached, which is slightly lower than the expected Rₘₐₓ value of 6.8 RU for a 1:1 ratio, but definitely larger than 3.4 RU, the Rₘₐₓ value expected for a binding ratio of 2 molecules of RANK per flag-mRANKL WT trimer. Similar to mRANKL WT, binding of RANKL mD1 or mD2 to mRANK-Fc results in slightly lower Rₘₐₓ values than expected for a 1:1 binding ratio: 24 RU D1 compared to 26 RU, and 20 RU D2 compared to 23 RU (FIG. 15A). These binding ratio's could be reached with mD1 and mD2 at densities of mRANK-Fc of <50 RU. The approximate 1:1 binding of RANKL proteins to mRANK-Fc allows fitting the data to the 1:1 Langmuir binding model.

[4] = molecular target: T3, murine RANKL heterodimeric variant mD2 …; experiment: as above
Description: as §3, §4

Binder | Kd (human RANK-Fc) | koff (human RANK-Fc) | kon (human RANK-Fc) | Kd (murine RANK-Fc) | koff (murine RANK-Fc) | kon (murine RANK-Fc) | Kd [1] | koff [1] | kon [1] | Kd [2] | koff [2] | kon [2] | Ka [3] | Kd [3] | koff [3] | kon [3] | Ka [4] | Kd [4] | koff [4] | kon [4]
trimeric human RANKL WT (E. coli produced, R&D Systems) (ligand, UniProt O14788 140-317, looked up, Bought protein; also called hWT) IRAEKAMVDGSWLDLAKRSKLEAQPFAHLTINATDIPSGSHKVSLSSWYHDRGWAKISNMTFSNGKLIVNQDGFYYLYANICFRHHETSGDLATEYLQLMVYVTKTSIKIPSSHTLMKGGSTKYWSGNSEFHFYSINVGGFFKLRSGEEISIEVSNPSLLDPDQDATYFGAFKVRDID | 0.267 nM | 0.00023 s⁻¹ | 861000 M⁻¹ s⁻¹ | 0.136 nM | 0.000142 s⁻¹ | 1.04e+06 M⁻¹ s⁻¹ | – | – | – | – | – | – | – | – | – | – | – | – | – | –
human RANKL heterodimeric variant hD1-3 (ligand, Heterodimer expressed in E. coli BLR (DE3); copies: 1 + 1) chain 1: MGSSHHHHHHSQDPEAQPFAHLTINATDIPSGSHKVSLSSWYHDRGWADISNMTFSNGKLIVNQDGFYYLYANISFRHHETSGDLATEYLQLMVYVTKTSEKIPSSHTLMKGGSTKYWSGNSEFHYYSINVGGFFKLRSGEEISIEVSNPSLLDPDQDATYFGAFKVRDID chain 2: MEAQPFAHLTINATDIPSGSHKVSLSSWYHDRGWAKISNMTFSNGKLIVNQDGYYYLYANICFRHHETSGDLATEYLQLMVYVTKTSEKIPSSHTLMDGGSTKYWSGNSEFHFYSINVGGYFKLRSGEEISIEVSNPSLLDPDQDATYFGAFKVRDID | 0.345 nM | 0.000275 s⁻¹ | 798000 M⁻¹ s⁻¹ | 0.211 nM | 0.00019 s⁻¹ | 899000 M⁻¹ s⁻¹ | – | – | – | – | – | – | – | – | – | – | – | – | – | –
human RANKL heterodimeric variant hD2-3 (ligand, Heterodimer expressed in E. coli BLR (DE3); also called hRANKL D2.3; copies: 1 + 1) chain 1: MGSSHHHHHHSQDPEAQPFAHLVINATDIPSGSHKVSLSSWYHDRGWAKISNMTFSNGKLIVNQDGFYYLYANISFRHHETSGKLATEYLQLMVYVTKTSEKIPSSHTLMKGGSTKYWSGNSEFHYYSINVGGFFKLRSGEEISIEVSNPSLLDPDQDATYFGAFKVRDID chain 2: MEAQPFAHLVINATDIPSGSHKVSLSSWYHDRGWAKISNMTFSNGKLIVNQDGYYYLYANICFRHHETSGKLATEYLQLMVYVTKTSEKIPSSHTLMDGGSTKYWSGNSEFHFYSINVGGYFKLRSGEEISIEVSNPSLLDPDQDATYFGAFKVRDID | 0.0766 nM | 8.87e-05 s⁻¹ | 1.16e+06 M⁻¹ s⁻¹ | 0.0504 nM | 8.32e-05 s⁻¹ | 1.65e+06 M⁻¹ s⁻¹ | – | – | – | – | – | – | – | – | – | – | – | – | – | –
B1 | – | – | – | – | – | – | 0.0439 nM | 0.000247 s⁻¹ | 5.93e+06 M⁻¹ s⁻¹ | 0.00855 nM | 5.76e-05 s⁻¹ | 6.73e+06 M⁻¹ s⁻¹ | 2.7e+10 M⁻¹ | 0.146 nM | 0.00015 s⁻¹ | 5.8e+06 M⁻¹ s⁻¹ | 2.1e+11 M⁻¹ | 0.01 nM | 4.3e-05 s⁻¹ | 4.9e+06 M⁻¹ s⁻¹
